Tests used:
[1] = tested on: Su(H) WT (Drosophila melanogaster); experiment: ITC; details: ITC: 50 mM sodium phosphate pH 6.5, 150 mM NaCl, 10 C; 10 uM Su(H) in cell, 100 uM DNA in syringe; one-site model
[2] = biological target: T1, Recombinant Su(H) (98-523) (Drosophila melanogaster, UniProt P28159 98-523); experiment: ITC; MicroCal VP-ITC; typically 50 μM Su(H) in the syringe and 5 μM NICD in the cell; 25°C; 50 mM sodium phosphate pH 6.5, 150 mM NaCl; one-site binding model; details: both partners purified
T1 construct: Suppressor of Hairless (Su(H)), the Drosophila CSL, residues 98-523; Wild-type parent of the NBM mutant in the ITC experiment; also called Suppressor of Hairless; CSL; source: bacteria, purified (glutathione-Sepharose, cation exchange, size exclusion chromatography)
T1 sequence (P28159 98-523): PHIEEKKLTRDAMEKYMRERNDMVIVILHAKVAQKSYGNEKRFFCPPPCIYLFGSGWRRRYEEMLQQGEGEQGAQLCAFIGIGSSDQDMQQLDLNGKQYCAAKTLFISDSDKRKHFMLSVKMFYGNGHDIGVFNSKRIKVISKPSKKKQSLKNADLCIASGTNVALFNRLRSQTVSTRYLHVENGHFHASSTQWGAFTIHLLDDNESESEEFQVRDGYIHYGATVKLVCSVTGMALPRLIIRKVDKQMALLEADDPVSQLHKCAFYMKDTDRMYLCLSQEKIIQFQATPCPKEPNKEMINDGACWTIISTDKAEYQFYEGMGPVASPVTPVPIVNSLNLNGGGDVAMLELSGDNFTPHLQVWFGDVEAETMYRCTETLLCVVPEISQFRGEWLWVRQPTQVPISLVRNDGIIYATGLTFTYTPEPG

Molecule | Kd [1] | binding result [2]
ITC DNA (Su(H) binding DNA, sequence not given) | 460 nM | 
Recombinant NICD (1762-2142) (domain or fragment, Drosophila melanogaster, UniProt P07207 1762-2142, looked up, Notch intracellular domain (NICD), Drosophila Notch, residues 1762-2142; also called Notch intracellular domain; source: bacteria, purified (glutathione-Sepharose, cation exchange, size exclusion chromatography)) MVLSTQRKRAHGVTWFPEGFRAPAAVMSRRRRDPHGQEMRNLNKQVAMQSQGVGQPGAHWSDDESDMPLPKRQRSDPVSGVGLGNNGGYASDHTMVSEYEEADQRVWSQAHLDVVDVRAIMTPPAHQDGGKHDVDARGPCGLTPLMIAAVRGGGLDTGEDIENNEDSTAQVISDLLAQGAELNATMDKTGETSLHLAARFARADAAKRLLDAGADANCQDNTGRTPLHAAVAADAMGVFQILLRNRATNLNARMHDGTTPLILAARLAIEGMVEDLITADADINAADNSGKTALHWAAAVNNTEAVNILLMHHANRDAQDDKDETPLFLAAREGSYEACKALLDNFANREITDHMDRLPRDVASERLHHDIVRLLDEHVPR |  | binds
